The test system of one test is gum arabic. The test is described as follows: VHH binding to gum arabic in ELISA. The arrangement: species or system acacia tree. The protocol: Titration of VHH antibody fragments was performed on ELISA plates (Maxisorp, Nunc) coated with 100 μl per well 100 μg/ml gum arabic in 50 mM carbonate pH 9.6. Plates were coated at 4° C. overnight and coating was continued at room temperature for 1 hour on the next day. Plates were washed three times with PBS/0.05%-TWEEN®-20 and blocked with 5% skimmed milk in PBS for 1 hour. Four-fold serial dilutions of purified VHH antibody fragments were prepared in 1% MPBS/0.05%-TWEEN®-20 in polypropylene 96-well plates. Antibody concentrations ranged from 3 μg/ml to 12 ng/ml. Antibody dilutions were transferred to the gum arabic-coated plates and VHH antibody fragments were allowed to bind for 1 hour at room temperature. Bound VHH were detected with sequential incubations with monoclonal mouse anti-histidine antibodies (Abd Serotec) and rabbit anti-mouse IgG whole molecule antibodies conjugated with alkaline phosphatase (RaM/AP) (Sigma) in 1% MPBS/0.05%-TWEEN®-20. Unbound antibodies were removed by washing three times with PBS/0.05%-TWEEN®-20 after each antibody incubation. The plates were washed an additional two times with PBS and 100 μl pNPP disodium hexahydrate substrate (Sigma) was added to each well. The absorbance at 405 nm was measured and plotted as function of antibody concentration (see Table 1).

Test [1] deals with T1, potato lectin (Solanum tuberosum, UniProt Q9S8M0).
T1 construct: purchased Sigma
T1 sequence (Q9S8M0 whole entry, looked up): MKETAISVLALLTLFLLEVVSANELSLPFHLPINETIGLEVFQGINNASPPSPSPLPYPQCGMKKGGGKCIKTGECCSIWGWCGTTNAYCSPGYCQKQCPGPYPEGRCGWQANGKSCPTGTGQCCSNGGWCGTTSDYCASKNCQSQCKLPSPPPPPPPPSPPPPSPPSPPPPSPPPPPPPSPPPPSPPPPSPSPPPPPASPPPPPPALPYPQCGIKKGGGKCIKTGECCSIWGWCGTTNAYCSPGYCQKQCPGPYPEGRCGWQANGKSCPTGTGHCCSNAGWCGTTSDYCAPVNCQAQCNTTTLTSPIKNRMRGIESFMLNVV
In words: VHH binding to potato lectin in ELISA. The note with it: Table 2; Blank (no antigen coating); VHH 3 μg/ml. The protocol:
ELISA plates (Maxisorp, Nunc) coated with 100 μl per well 100 μg/ml potato lectin (Sigma) in PBS were coated at 4° C. overnight and coating was continued at room temperature for 1 hour on the next day. Plates were washed three times with PBS/0.05%-TWEEN®-20 and blocked with 5% skimmed milk in PBS for 1 hour. VHH (3 μg/ml) were transferred to the potato lectin-coated plates and VHH antibody fragments were allowed to bind for 1 hour at room temperature. Bound VHH were detected with sequential incubations with monoclonal mouse anti-histidine antibodies (Abd Serotec) and rabbit anti-mouse IgG whole molecule antibodies conjugated with alkaline phosphatase (RaM/AP) (Sigma) in 1% MPBS/0.05%-TWEEN®-20. Unbound antibodies were removed by washing three times with PBS/0.05%-TWEEN®-20 after each antibody incubation. The plates were washed an additional two times with PBS and 100 μl pNPP disodium hexahydrate substrate (Sigma) was added to each well and the absorbance at 405 nm was measured (see Table 2).

For test [2], the target named is T1, potato lectin. In words: ELISA-like assay, microcapsules with monovalent or bivalent VHH, potato lectin. Format: binding. The arrangement: Surface area of bound microcapsules: unit not given here. The text has this: (§1) Bivalent VHH constructs were produced in bacteria by cloning two VHH sequences in tandem into the pASF22 vector, creating a fusion of two VHH with a 9 glycine-serine linker (GGGGSGGGS (SEQ ID NO:50)) in between the two VHH. pASF22 is an in-house produced pMES derivative. The tags that were used were C-terminal c-Myc (EQKLISEEDLN (SEQ ID NO:51)) and hexahistidine (HHHHHH (SEQ ID NO:52)). A triple alanine linker (AAA) was placed in between the C-terminal end of the VHH and the c-Myc tag and a glycine-alanine-alanine (GAA) linker was used in between the C-terminal end of the c-Myc tag and the hexahistidine tag. The complete sequence C-terminal of the bivalent VHH that was used: AAA-EQKLISEEDLN-GAA-HHHHHH (SEQ ID NO:53). Fresh overnight cultures were produced by starting from colony streaks and inoculation of 2×TY media supplemented with 2% glucose and 100 μg/ml ampicillin. The overnight cultures were used to inoculate fresh cultures 1:100 in 2×TY media with 0.1% glucose and 100 μg/ml ampicillin. After growing at 37° C. in a shaking incubator for 3 hours, IPTG was added to a 1 mM final concentration and recombinant bivalent VHH were produced during an additional incubation for 4 hours. Cells were spun down and resuspended in 1/50th of the original culture volume of PBS and incubated with head-over-head rotation at 4° C. for 30 minutes. Spheroplasts were spun down by centrifugation at 3,000 g and 4° C. for 20 minutes. Supernatants were transferred to fresh tubes and centrifuged again at 3,000 g and 4° C. for 20 minutes. The supernatant was collected and sodium chloride concentration was adjusted to 500 mM and imidazole concentration to 20 mM. Hexahistidine-tagged bivalent VHH were purified from the extracts using HisTrap FF Crude 5 ml IMAC columns (GE Lifesciences) and HiLoad 16/60 Superdex 75 prep grade gel filtration column (GE Lifesciences) on an AKTAxpress system (GE Lifesciences) following standard procedures.
(§2) Next, it was investigated if binding of microcapsules to surfaces could be improved by using targeting agents comprising multivalent VHH. A series of parallel couplings was performed with equal amounts of monovalent VHH, bivalent VHH, and unrelated VHH. Success of coupling of VHH and multivalent VHH were analyzed as described in Example 4. An ELISA-like assay was performed using high bind half area microplates (Greiner Bio-One) coated with 5 μg/well potato lectin. Control wells included blank wells or wells coated with unrelated antigens. Plates were washed three times with PBS with 0.05%-TWEEN®-20 and blocked with 5% skimmed milk in PBS for 1 to 2 hours. VHH-coupled Uvitex-containing microcapsules were diluted to appropriate densities in 1% skimmed milk in PBS with 0.05%-TWEEN®-20. Five-fold serial dilution series were prepared and allowed to bind to the surface to compare binding of microcapsules coupled with monovalent or bivalent VHH. Microcapsules were added to the antigen-coated or control wells and allowed to bind for 1 hour. Unbound microcapsules were removed by washing five times with PBS with 0.05%-TWEEN®-20. The bottoms of ELISA plate wells were analyzed for bound microcapsules on a macrozoom microscope system (Nikon). Microcapsules were counted using Volocity image analysis software (Perkin Elmer). A DAPI filter was used to visualize Uvitex microcapsules. […] The surface area of microcapsules with coupled bivalent VHH was 15-fold above the surface area of blank microcapsules applied at this microcapsule density while the surface area of microcapsules with monovalent VHH was only six-fold above the surface area of blank microcapsules applied at this microcapsule density. This difference could be explained by an increase in binding strength due to additional avidity of the bivalent VHH compared to monovalent VHH, it could also be that the use of bivalent VHH increases flexibility and spacer length of the coupled targeting agents on microcapsules, or a combination of both.

Test [3] in a line: ELISA-like assay, microcapsules with monovalent or bivalent VHH, unrelated antigen. Format: binding. The arrangement: unit not given beside the values. As to conditions: Uvitex microcapsules.
From the text: as §1, §2

Setting [4] is: [VHH] 3 μg/ml (200 nM), gum arabic − (well without gum arabic).
Setting [5] is: Table 2, gum arabic coating, VHH 3 μg/ml.

B1: VHH5E5: VHH sequence; SEQ ID NO:21 by order of the list (protein, listed as Lama glama)
VHH: QVQLQESGGGLVQPGGSLTLSCTASGFAMRRFGIGWFRQVVGKEREGVSCSNVHDGSTYYANYVKGRFTIVRDDTKNMLYLHMNSLRAEDTGVYSCATTDCEATAWGTYRGYFGQGTQVTVSS
modifications: 5E5
With B1, the “absorbance at 405 nm” value in the test with gum arabic (setting [4]) came out at 0.073.

B2: VHH 7D2: VHH sequence; SEQ ID NO:28 by order of the list (protein, listed as Lama glama)
VHH: QVQLQESGGGLVQPGRSLKVACAAAGFSLRYYGIGWFRQAPGKEREAVSCTSANDGSTYYRDSVRGRFTISRDDGKNTVYLQMNRLKPEDTAVYYCATTDCDATSWGTWINYYGQGTQVTVSS
modifications: 7D2
Take B2: the “absorbance at 405 nm” value came out at 0.274 with gum arabic (setting [5]), 0.074 with gum arabic (setting [4]) and 0.072 in the test with potato lectin [1].

B3: VHH5F5: VHH sequence; SEQ ID NO:22 by order of the list (protein, listed as Lama glama)
VHH: QVQLQESGGGLVQPGGSLRLSCAASGFPLGLYGIGWFRQAPGKEREAVSCDSVDDGSTNYLDSVKGRFTISRDNAKNMVYLQMNSLKPEDTAVYYCATTDCDAKAWGTWTNYRGQGTQVTVSS
modifications: 5F5
For B3, the “absorbance at 405 nm” value with gum arabic (setting [4]) stood at 0.090.

B4: VHH7A2: VHH sequence; SEQ ID NO:26 by order of the list (protein, listed as Lama glama)
VHH: QVQLQESGGGSVHPGGSLTLSCLASGFSLSNYGMGWFRQAPGKEREAVSCTSVPNGHIYYAESVKGRFTIVRDNAGNSVYLQMNSLKPEDAANYFCATTDCEAAHWGTWVNYYGQGTQVTVSS
modifications: 7A2
As for B4, the “absorbance at 405 nm” value in the test with gum arabic (setting [4]) came out at 0.075.

B5: VHH7C2: VHH sequence; SEQ ID NO:27 by order of the list (protein, listed as Lama glama)
VHH: QVQLQESGGGLVQPGGSLRLSCAAFGFALANYGIGWFRQAPGKDRERVSCDSVDDGSTHYSNSVQGRFTIIRDNAKNTVFLQMNSLKAEDTAVYYCATTDCDATTWGTWINYRGQGTQVTVSS
modifications: 7C2
Regarding B5, the “absorbance at 405 nm” value in the test on gum arabic (setting [4]) was determined as 0.077.

B6: Bivalent VHH 3E6: Uvitex-containing microcapsules coupled with bivalent VHH, a fusion of two VHH with a 9 glycine-serine linker (conjugate)
chain: QVQLQESGGGLVQPGGTLSLSCAASGFNVRWYGMGWFRQAPGKEREGVACISALQETTAYADSVKGRFTLSRDNPKNTLSLQMNNLQPEDTGVYYCATTDCDDSSRMTYTSYLGQGTQVTVSSGGGGSGGGSQVQLQESGGGLVQPGGTLSLSCAASGFNVRWYGMGWFRQAPGKEREGVACISALQETTAYADSVKGRFTLSRDNPKNTLSLQMNNLQPEDTGVYYCATTDCDDSSRMTYTSYLGQGTQVTVSSAAAEQKLISEEDLNGAAHHHHHH
As to B6, the “more microcapsules retained in the well compared to microcapsules with monovalent VHH” value in the test with potato lectin [2] (application of 25-fold less microcapsules, potato lectin) was found to be 160%; with potato lectin [2] (highest density of microcapsules applied (fully cover the bottom of the well), potato lectin), 17%. For the same molecule, the “Surface area of bound microcapsules” value in the test with potato lectin [2] (no coating (first series, with potato lectin rows), surface coverage 100%, Uvitex microcapsules) is listed as 66.176; with potato lectin [2] (potato lectin, surface coverage 4%, Uvitex microcapsules), 155.759; with potato lectin [2] (potato lectin, surface coverage 20%, Uvitex microcapsules) it was 511.303; with potato lectin [2] (potato lectin, surface coverage 100%, Uvitex microcapsules), 490.546; in test [3] (no coating (second series, with unrelated antigen rows), surface coverage 100%), 55.841; in test [3] (unrelated antigen, surface coverage 20%), 22.114. Further, in test [3] (unrelated antigen, surface coverage 100%), the “Surface area of bound microcapsules” value worked out at 45.677. For the same molecule, in the test with potato lectin [2] (potato lectin 5 μg/well, Uvitex microcapsules), the “binding to antigen-coated surface when coupled to a microcapsule” value is “capable of binding specifically”.

B7: VHH 5C4: VHH sequence; SEQ ID NO:18 by order of the list (protein, listed as Lama glama)
VHH: QVQLQESGGGLVQPGGSLRLSCAASGFSLRYFGIGWFRQVAGKEREPVSCSNVRDGNTYYADSVKGRFTISRDNVRNTLYLQMNSLKPEDTAVYSCATTDCEATTWGTYRGYFGQGTQVTVSS
modifications: 5C4
Turning to B7, the “absorbance at 405 nm” value in the test on gum arabic (setting [5]) is 0.873; in the test with gum arabic (setting [4]) it was 0.082; with potato lectin [1], 0.071.

B8: VHH 5G5: VHH sequence; SEQ ID NO:24 by order of the list (protein, listed as Lama glama)
VHH: QVQLQESGGGLVQPGGSLRLSCAASGFSLRYFGIGWFRQAAGKEREGISCSNVRDGNTYYADSVKGRFTISRDNVRNMLYLQMNNLKPDDTAVYSCATTDCEATTWGTYRGYFGQGTQVTVSS
modifications: 5G5
For the molecule B8, the “absorbance at 405 nm” value was determined as 0.751 in the test on gum arabic (setting [5]), 0.077 with gum arabic (setting [4]) and 0.073 with potato lectin [1].
